# T1: purified DARPP-32
# T1 sequence (Q9UD71 1-204, species assumed, looked up): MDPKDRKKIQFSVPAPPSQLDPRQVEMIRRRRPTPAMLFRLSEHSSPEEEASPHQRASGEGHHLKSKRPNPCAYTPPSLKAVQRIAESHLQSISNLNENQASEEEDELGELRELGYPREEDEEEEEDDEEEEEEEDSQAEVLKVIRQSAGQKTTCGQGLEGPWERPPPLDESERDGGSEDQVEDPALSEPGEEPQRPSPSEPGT
# Molecular target: T1, purified DARPP-32
protein,measurement,value
"Myc-tagged MM2-CK1ε (S323A/T325A/T334A/T337A/S368A/S405A/T407A/S408A), expressed in N2a cells from pCS-Myc-MM2-CK1ε (protein) MELRVGNKYRLGRKIGSGSFGDIYLGANIASGEEVAIKLECVKTKHPQLHIESKFYKMMQGGVGIPSIKWCGAEGDYNVMVMELLGPSLEDLFNFCSRKFSLKTVLLLADQMISRIEYIHSKNFIHRDVKPDNFLMGLGKKGNLVYIIDFGLAKKYRDARTHQHIPYRENKNLTGTARYASINTHLGIEQSRRDDLESLGYVLMYFNLGSLPWQGLKAATKRQKYERISEKKMSTPIEVLCKGYPSEFSTYLNFCRSLRFDDKPDYSYLRQLFRNLFHRQGFSYDYVFDWNMLKFGAARNPEDVDRERREHEREERMGQLRGAAARALPPGPPAGAAANRLRSAAEPVASTPASRIQPAGNTSPRAIARVDRERKVSMRLHRGAPANVSSSDLTGRQEVSRIPAAQAAVPFDHLGK","kinase activity of the immunoprecipitated enzyme with DARPP-32 as substrate, against HA-CK1ε",approximately 2-fold more active than HA-CK1ε in the absence of DHPG

# Reference: US20060223158
